Experimental data published in the domain aggregation screens of Martell et al. (2025).

Assay: soluble fraction after stress (log2 fold change); higher = more stays soluble; pooled small domains, quantitative proteomics
Details: stress: 50 degC
In short: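 The measure of aggregation propensity here is the base-two logarithm of the fold change in the soluble amount of each protein after stress. A higher value means more of that protein stays in solution. Stress was applied at 50°C to pooled libraries of small protein domains, read out by high-throughput quantitative proteomics.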

Question: Which “soluble fraction (log2)” value does the source give for “HMIYNSGTTDSRGEAIVGGYLVTVTDTDTKDPVANAAVTLHKDNSISIRLPNSRLLDYADQTTVTVQLV” here?
Answer: -0.0327

Question: Which “soluble fraction (log2)” value does the source give for “HMKHSLNHLGLWLLPELSRRDIQLREFAHLLGTTSQGLSDLLRGQRFSSHTLAQWQLRFQEKLDEIDQAS” here?
Answer: -1.11

Question: For “HMQTAAANPSPESILQAREAAGLSQSEAGALIYSGLRSWQHWEWGTRRMHPGLFELFLKKTGQI”, which “soluble fraction (log2)” value is on record?
Answer: -1.7

Question: Which “soluble fraction (log2)” value does the source give for “HMKQLNKRQNDILSFAEKQGYVSVENLAKLFSVTQQTIRRDINYLSDNELLVRTHGGAYYSS” here?
Answer: -0.902

Question: Which “soluble fraction (log2)” value does the source give for “HMDKAGWLPARVRLADYPALKQLAWQVQGVDELTPREALGIYERNWRHLDEAALLPRERNLIDALRLAFG” here?
Answer: -0.207

Question: Which “soluble fraction (log2)” value does the source give for “HMSDNLTIVRAVYSGLSQRQAAATYHVSRNTVSLLLRHARNRGWLTLEDLAQLDNAAFSKSL” here?
Answer: -4.13

Question: Which “soluble fraction (log2)” value does the source give for “HMTYSEEEIERDLYVRGTLYQIGDLVENKIDGTSGEIVRRGPNYVQYSDGENFYKAFLHSIQEV” here?
Answer: -0.106

Question: For “HMIMTTKVSGIMFDKFNPSAILNINGMDYLVRSGDIINGYKILSIGQETVTVQYGANVYKASVG”, which “soluble fraction (log2)” value is on record?
Answer: -2.26

Question: With “HMRPRGTRLPTGWTPSSDALDWTKAEKPGLDPLQTLEKFRDYWTAQPGQKGVKTDWDATWRNWVRREIP” as the sequence, how does the “soluble fraction (log2)” value read?
Answer: 0.172

Question: For “HMELRIREILESKDIKVSSLAETVGITRANMSNIVNGKSTPSLETLEKIANALGVDITELFA”, which “soluble fraction (log2)” value is on record?
Answer: 0.116

Question: Which “soluble fraction (log2)” value does the source give for “HMPATPDATVQAVQQRLNELGYDVGSADGLMGRGTRSAIIAFQQDRGLAATGVADQALLLQLQP” here?
Answer: 0.208

Question: With “HMNYKNAIGQVGSVYVPIPPNREGLGQIEVKVQSRVSTVRAVSDHSERLENRVAVRVIELVDDRTLLVEKL” as the sequence, how does the “soluble fraction (log2)” value read?
Answer: -0.839

Question: Which “soluble fraction (log2)” value does the source give for “HMQANLPFSELLADVDRGLISDVTIKGDQVSGHYTDGRTFNTFIPPEADLVRRLTEKNVRIAAVPD” here?
Answer: -0.111

Question: With “HMSSSLDQLTVREREILAQVSRGLSNKAIARELGISHDTVKLHVRHILSKLGFSSRVEAAVFAIEHRIG” as the sequence, how does the “soluble fraction (log2)” value read?
Answer: -1.72

Question: Which “soluble fraction (log2)” value does the source give for “HMLEIDPPVDEISVSRKAFYEAAGYKVNPYTHIPPRYRKEFEEHSFVVMSWPRELPEETYRKFDRYLRDV” here?
Answer: 0.103

Question: Which “soluble fraction (log2)” value does the source give for “HMGSQQIEEGMRRLVASGALRPGASVPSVRDLARDLQVNPATVVRAYQRLVDAGLLVVRRGEGTFVAE” here?
Answer: -0.588

Question: Which “soluble fraction (log2)” value does the source give for “HMKSLAQELVDALGDRIRDGRLKVGDKLPSEAAIEAQYGVSRTVVREAISRLQAAGLVVTRHGIGTFIVGI” here?
Answer: -0.804

Question: With “HMDEFHLSERERQILNLLVLGHTYKHIASDLNIAYATVNKHVSNVYAKLRVQSASEAVALAIRKGL” as the sequence, how does the “soluble fraction (log2)” value read?
Answer: -0.899

Question: With “HMIEDMQQYIKEIRQMVSGRLDMTRNLEDEEIRDTIAELVAEESRKQYMTLTEKREVIEGVFNSMR” as the sequence, how does the “soluble fraction (log2)” value read?
Answer: -0.0273

Question: With “HMKLEEITIIVPSLRLDNFVSDLARTSRSKAVQIIDSERVFINGQNETKASKQVKLGDVITSA” as the sequence, how does the “soluble fraction (log2)” value read?
Answer: -0.277

Question: For “HMDPTHDMHFLVKDQVTGQPLPNMPYRLQLDNGQTLTGRTDALGMTEKISGHSPHIASIEVPY”, which “soluble fraction (log2)” value is on record?
Answer: 0.18

Question: For “HMSATVLVHVLGEVRKPGVVSLPEGSRVQDAITAAGGLTSRAKPGDLNLAARVSDGAQLVIGRSGSQVRTT”, which “soluble fraction (log2)” value is on record?
Answer: -0.0286

Question: For “HMESVTETFLTNLINRYIADKAGYIISYPSEYRIEVLYHGGQVLDYENLRKSINTYIPAHIGYKLVTI”, which “soluble fraction (log2)” value is on record?
Answer: -0.112

Question: Which “soluble fraction (log2)” value does the source give for “HMGKPAGLIRELGNHPEDEKPVTLNNGRFGPYVKHGKVMASLTKADSPDDITFDRAIELIAIKAEKMAAKG” here?
Answer: 0.184

Question: Which “soluble fraction (log2)” value does the source give for “HMGDKVLIQTAQRLKKDLPFASIVSRFGGDEFLIFLPGISSTERVETIVKKTVFLFIAISTTLF” here?
Answer: -0.124

Question: For “HMVQVRQPAGAGDLFAKGRLHLSTGTIHTVKPLEVDLPKGRLTVVTGVSGSGKTTLILESLLPALAAAAA”, which “soluble fraction (log2)” value is on record?
Answer: 0.482

Question: For “HMTGTKEQQVVMLNNILQKQLQAFELQGKRDYPMVTMKNMYNTLSKMVENAGLQTVESYFVDPIKGQQM”, which “soluble fraction (log2)” value is on record?
Answer: -0.0334

Question: With “HMITKENYLEKIKEIKVNEFPASMRELYDFFNEATRNGTDWSAYEEGNVKYVVDAYLERLNLLYKSN” as the sequence, how does the “soluble fraction (log2)” value read?
Answer: -0.175
